Patent US20200224203A1

Legend:
[1] = target: huntingtin (htt) protein, full length, from human fibroblasts, P42858
[2] = target: modified htt protein after partial exon 12 skipping (human) (UniProt P42858); assay: cell-based or functional assay

Sequence of huntingtin (htt) protein, full length, from human fibroblasts, P42858 (P42858 whole entry): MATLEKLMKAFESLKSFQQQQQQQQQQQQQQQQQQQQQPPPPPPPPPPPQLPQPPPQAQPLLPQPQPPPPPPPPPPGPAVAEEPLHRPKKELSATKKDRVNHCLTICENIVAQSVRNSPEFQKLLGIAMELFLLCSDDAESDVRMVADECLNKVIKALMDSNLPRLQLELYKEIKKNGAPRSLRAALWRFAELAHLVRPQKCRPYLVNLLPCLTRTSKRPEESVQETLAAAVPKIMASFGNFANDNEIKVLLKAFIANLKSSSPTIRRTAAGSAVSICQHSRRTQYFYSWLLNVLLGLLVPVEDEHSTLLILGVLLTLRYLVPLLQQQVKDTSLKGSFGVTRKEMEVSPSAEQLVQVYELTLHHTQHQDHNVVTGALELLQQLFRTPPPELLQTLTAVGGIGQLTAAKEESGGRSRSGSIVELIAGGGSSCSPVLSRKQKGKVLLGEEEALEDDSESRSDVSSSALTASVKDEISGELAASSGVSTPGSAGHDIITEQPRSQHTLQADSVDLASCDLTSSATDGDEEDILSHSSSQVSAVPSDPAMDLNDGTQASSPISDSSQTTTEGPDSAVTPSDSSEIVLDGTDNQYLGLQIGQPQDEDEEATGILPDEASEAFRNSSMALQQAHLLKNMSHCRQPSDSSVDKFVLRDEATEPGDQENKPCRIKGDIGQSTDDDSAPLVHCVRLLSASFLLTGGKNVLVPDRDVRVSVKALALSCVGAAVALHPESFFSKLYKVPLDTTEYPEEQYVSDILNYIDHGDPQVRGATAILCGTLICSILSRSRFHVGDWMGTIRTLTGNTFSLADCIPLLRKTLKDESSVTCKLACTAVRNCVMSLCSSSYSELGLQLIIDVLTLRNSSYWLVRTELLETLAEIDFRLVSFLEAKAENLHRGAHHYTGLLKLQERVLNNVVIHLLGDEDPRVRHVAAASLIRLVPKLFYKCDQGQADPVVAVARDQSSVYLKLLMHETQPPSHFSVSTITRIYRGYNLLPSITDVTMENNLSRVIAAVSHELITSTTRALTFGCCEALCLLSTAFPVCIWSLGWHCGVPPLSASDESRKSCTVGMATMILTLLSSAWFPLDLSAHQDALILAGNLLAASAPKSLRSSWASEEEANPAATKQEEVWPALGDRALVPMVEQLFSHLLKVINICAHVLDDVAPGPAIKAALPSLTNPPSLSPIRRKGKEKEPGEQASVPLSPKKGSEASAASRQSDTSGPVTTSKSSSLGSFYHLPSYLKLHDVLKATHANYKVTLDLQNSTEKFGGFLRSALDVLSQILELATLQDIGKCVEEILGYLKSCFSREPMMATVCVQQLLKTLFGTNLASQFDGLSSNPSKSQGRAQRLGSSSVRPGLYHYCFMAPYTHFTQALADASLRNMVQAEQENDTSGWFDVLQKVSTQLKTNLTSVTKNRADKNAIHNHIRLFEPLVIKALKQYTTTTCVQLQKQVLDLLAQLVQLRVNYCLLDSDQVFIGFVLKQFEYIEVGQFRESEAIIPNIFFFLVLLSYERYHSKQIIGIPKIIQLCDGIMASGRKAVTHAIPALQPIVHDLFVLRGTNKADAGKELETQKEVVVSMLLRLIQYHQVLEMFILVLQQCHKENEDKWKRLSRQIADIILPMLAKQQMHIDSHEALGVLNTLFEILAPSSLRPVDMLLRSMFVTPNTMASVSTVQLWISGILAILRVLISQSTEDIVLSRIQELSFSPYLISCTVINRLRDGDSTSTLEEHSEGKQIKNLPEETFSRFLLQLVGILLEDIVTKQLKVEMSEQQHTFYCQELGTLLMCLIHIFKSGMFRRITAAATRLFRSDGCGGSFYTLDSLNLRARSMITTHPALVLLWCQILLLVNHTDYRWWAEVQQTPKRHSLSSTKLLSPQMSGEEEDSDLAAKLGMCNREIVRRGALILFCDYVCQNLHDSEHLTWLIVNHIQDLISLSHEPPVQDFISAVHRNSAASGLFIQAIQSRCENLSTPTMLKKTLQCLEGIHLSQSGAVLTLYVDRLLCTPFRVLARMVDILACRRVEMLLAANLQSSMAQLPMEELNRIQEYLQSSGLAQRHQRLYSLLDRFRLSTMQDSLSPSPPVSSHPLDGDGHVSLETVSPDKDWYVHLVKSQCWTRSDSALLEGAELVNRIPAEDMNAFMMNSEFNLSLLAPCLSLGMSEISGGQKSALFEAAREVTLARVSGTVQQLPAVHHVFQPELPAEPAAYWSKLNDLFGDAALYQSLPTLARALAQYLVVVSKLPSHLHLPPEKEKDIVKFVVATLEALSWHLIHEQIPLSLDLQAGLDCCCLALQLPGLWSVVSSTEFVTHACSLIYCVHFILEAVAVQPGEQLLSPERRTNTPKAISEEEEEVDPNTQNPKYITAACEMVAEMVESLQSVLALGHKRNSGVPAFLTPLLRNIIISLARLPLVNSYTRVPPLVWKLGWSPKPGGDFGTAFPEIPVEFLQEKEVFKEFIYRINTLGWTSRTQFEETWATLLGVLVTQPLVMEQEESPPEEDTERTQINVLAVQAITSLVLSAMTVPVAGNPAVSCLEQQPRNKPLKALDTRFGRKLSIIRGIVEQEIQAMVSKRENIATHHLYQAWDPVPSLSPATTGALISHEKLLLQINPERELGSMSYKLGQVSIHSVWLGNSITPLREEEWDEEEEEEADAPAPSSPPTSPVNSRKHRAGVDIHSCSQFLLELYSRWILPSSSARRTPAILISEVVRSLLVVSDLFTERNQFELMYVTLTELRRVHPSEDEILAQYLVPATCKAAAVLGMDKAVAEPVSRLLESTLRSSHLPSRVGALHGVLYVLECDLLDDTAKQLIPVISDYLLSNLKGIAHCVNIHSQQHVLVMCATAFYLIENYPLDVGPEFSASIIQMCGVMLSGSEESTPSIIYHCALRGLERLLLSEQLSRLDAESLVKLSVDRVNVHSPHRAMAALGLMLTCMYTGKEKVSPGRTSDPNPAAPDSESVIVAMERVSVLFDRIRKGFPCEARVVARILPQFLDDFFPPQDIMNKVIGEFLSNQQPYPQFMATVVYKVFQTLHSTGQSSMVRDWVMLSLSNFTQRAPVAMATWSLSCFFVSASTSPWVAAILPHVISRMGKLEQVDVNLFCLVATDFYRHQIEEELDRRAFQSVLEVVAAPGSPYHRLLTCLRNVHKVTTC

reduction of 98 kDa N-terminal htt fragments in an in vitro caspase-6 cleavage assay (samples from cells treated with hHTTEx12 7) [2]: 31.9%
B1: recombinant active caspase-6 (protein)
chain: AFYKREMFDPAEKYKMDHRRRGIALIFNHERFFWHLTLPERRGTCADRDNLTRRFSDLGFEVKCFNDLKAEELLLKIHEVSTVSHADADCFVCVFLSHGEGNHIYAYDAKIEIQTLTGLFKGDKCHSLVGKPKIFIIQACRGNQHDVPVIPLDVVDNQTEKLDTNITEVDAASVYTLPAGADFLMCYSVAEGYYSHRETVNGSWYIQDLCEMLGKYGSSLEFTELLTLVNRKVSQRRVDFCKDPSAIGKKQVPCFASMLTKKLHFFPKSN
N-terminal htt fragments detected by Western blot (4C8 antibody) in an in vitro caspase-6 cleavage assay [1]: After samples were incubated with recombinant active caspase-6, N-terminal htt fragments of 98 kDa were detected
